Where a chain is given by its changes, count along the chain named. Names and notes keep the numbering of the source.
B1: equine IgG7 K311G mutant (antibody, part only; not given: variable domains, not shown: another chain or arm of the molecule)
constant: ASTTAPKVFPLASHSAATSGSTVALGCLVSSYFPEPVTVSWNSGALTSGVHTFPSVLQSSGLYSLSSMVTVPASSLKSQTYICNVAHPASSTKVDKKIVIKECGGCPTCPECLSVGPSVFIFPPKPKDVLMISRTPTVTCVVVDVGHDFPDVQFNWYVDGVETHTATTEPKQEQNNSTYRVVSILAIQHGDWLSGKEFKCKVNNQALPAPVQKTISKPTGQPREPQVYVLAPHRDELSKNKVSVTCLVKDFYPTDIDIEWKSNGQPEPETKYSTTPAQLDSDGSYFLYSKLTVETNRWQQGTTFTCAVMHEALHNHYTEKSVSKSPGK
B2: equine IgG7 M428W mutant (antibody, part only; not given: variable domains, not shown: another chain or arm of the molecule)
constant: B1 constant with G190K, M309W
B3: equine IgG7 N434T mutant (antibody, part only; not given: variable domains, not shown: another chain or arm of the molecule)
constant: B1 constant with G190K, N315T
B4: equine IgG7 A426W mutant (antibody, part only; not given: variable domains, not shown: another chain or arm of the molecule)
constant: B1 constant with G190K, A307W
B5: equine IgG7 M428G mutant (antibody, part only; not given: variable domains, not shown: another chain or arm of the molecule)
constant: B1 constant with G190K, M309G
B6: equine IgG7 N434S mutant (antibody, part only; not given: variable domains, not shown: another chain or arm of the molecule)
constant: B1 constant with G190K, N315S
B7: equine IgG7 N434K mutant (antibody, part only; not given: variable domains, not shown: another chain or arm of the molecule; small tags and cut ends)
constant: B1 constant with G190K, N315K
B8: equine IgG7 N434P mutant (antibody, part only; not given: Variable domains, not shown: another chain or arm of the molecule)
constant: B1 constant with G190K, N315P
B9: equine IgG7 K311S mutant (antibody, part only; not given: variable domains, not shown: another chain or arm of the molecule)
constant: B1 constant with G190S
B10: equine IgG7 K311H mutant (antibody, part only; not given: Variable domains, not shown: another chain or arm of the molecule)
constant: B1 constant with G190H
B11: equine IgG7 M428Q mutant (antibody, part only; not given: variable domains, not shown: another chain or arm of the molecule)
constant: B1 constant with G190K, M309Q
B12: equine IgG7 A426M mutant (antibody, part only; not given: variable domains, not shown: another chain or arm of the molecule)
constant: B1 constant with G190K, A307M
B13: equine IgG7 M428C mutant (antibody, part only; not given: Variable domains, not shown: another chain or arm of the molecule)
constant: B1 constant with G190K, M309C
B14: equine IgG7 A426P mutant (antibody, part only; not given: variable domains, not shown: another chain or arm of the molecule)
constant: B1 constant with G190K, A307P
B15: equine IgG7 M428K mutant (antibody, part only; not given: variable domains, not shown: another chain or arm of the molecule)
constant: B1 constant with G190K, M309K
B16: equine IgG7 K311V mutant (antibody, part only; not given: variable domains, not shown: another chain or arm of the molecule)
constant: B1 constant with G190V
B17: equine IgG7 N434F mutant (antibody, part only; not given: Variable domains, not shown: another chain or arm of the molecule; small tags and cut ends)
constant: B1 constant with G190K, N315F
B18: equine IgG7 K311N mutant (antibody, part only; not given: variable domains, not shown: another chain or arm of the molecule)
constant: B1 constant with G190N
B19: equine IgG7 K311T mutant (antibody, part only; not given: variable domains, not shown: another chain or arm of the molecule)
constant: B1 constant with G190T
B20: equine IgG7 K311W mutant (antibody, part only; not given: variable domains, not shown: another chain or arm of the molecule)
constant: B1 constant with G190W
B21: equine IgG7 N434R mutant (antibody, part only; not given: Variable domains, not shown: another chain or arm of the molecule)
constant: B1 constant with G190K, N315R
B22: equine IgG7 K311M mutant (antibody, part only; not given: variable domains, not shown: another chain or arm of the molecule)
constant: B1 constant with G190M
B23: equine IgG7 A426L mutant (antibody, part only; not given: Variable domains, not shown: another chain or arm of the molecule)
constant: B1 constant with G190K, A307L
B24: equine IgG7 K311Q mutant (antibody, part only; not given: Variable domains, not shown: another chain or arm of the molecule)
constant: B1 constant with G190Q
B25: equine IgG7 A426V mutant (antibody, part only; not given: variable domains, not shown: another chain or arm of the molecule)
constant: B1 constant with G190K, A307V
B26: equine IgG7 N434V mutant (antibody, part only; not given: Variable domains, not shown: another chain or arm of the molecule)
constant: B1 constant with G190K, N315V
B27: equine IgG7 A426F mutant (antibody, part only; not given: variable domains, not shown: another chain or arm of the molecule)
constant: B1 constant with G190K, A307F
B28: equine IgG7 D312A mutant (antibody, part only; not given: Variable domains, not shown: another chain or arm of the molecule)
constant: B1 constant with G190K, D191A
B29: equine IgG7 M428D mutant (antibody, part only; not given: variable domains, not shown: another chain or arm of the molecule)
constant: B1 constant with G190K, M309D
B30: equine IgG7 A426H mutant (antibody, part only; not given: variable domains, not shown: another chain or arm of the molecule)
constant: B1 constant with G190K, A307H
B31: equine IgG7 N434C mutant (antibody, part only; not given: variable domains, not shown: another chain or arm of the molecule)
constant: B1 constant with G190K, N315C
B32: equine IgG7 M428R mutant (antibody, part only; not given: variable domains, not shown: another chain or arm of the molecule)
constant: B1 constant with G190K, M309R
B33: equine IgG7 N434W mutant (antibody, part only; not given: variable domains, not shown: another chain or arm of the molecule)
constant: B1 constant with G190K, N315W
B34: equine IgG7 K311Y mutant (antibody, part only; not given: variable domains, not shown: another chain or arm of the molecule)
constant: B1 constant with G190Y
B35: equine IgG7 M428H mutant (antibody, part only; not given: variable domains, not shown: another chain or arm of the molecule)
constant: B1 constant with G190K, M309H
B36: equine IgG7 N434Y mutant (antibody, part only; not given: Variable domains, not shown: another chain or arm of the molecule)
constant: B1 constant with G190K, N315Y
B37: equine IgG7 M428L mutant (antibody, part only; not given: Variable domains, not shown: another chain or arm of the molecule)
constant: B1 constant with G190K, M309L
B38: equine IgG7 A426C mutant (antibody, part only; not given: variable domains, not shown: another chain or arm of the molecule)
constant: B1 constant with G190K, A307C
B39: equine IgG7 A426D mutant (antibody, part only; not given: variable domains, not shown: another chain or arm of the molecule)
constant: B1 constant with G190K, A307D
B40: equine IgG7 A426I mutant (antibody, part only; not given: variable domains, not shown: another chain or arm of the molecule)
constant: B1 constant with G190K, A307I
B41: equine IgG7 K311R mutant (antibody, part only; not given: variable domains, not shown: another chain or arm of the molecule)
constant: B1 constant with G190R
B42: equine IgG7 A426S mutant (antibody, part only; not given: variable domains, not shown: another chain or arm of the molecule)
constant: B1 constant with G190K, A307S
B43: equine IgG7 K311I mutant (antibody, part only; not given: variable domains, not shown: another chain or arm of the molecule)
constant: B1 constant with G190I
B44: equine IgG7 A426E mutant (antibody, part only; not given: variable domains, not shown: another chain or arm of the molecule)
constant: B1 constant with G190K, A307E
B45: equine IgG7 N434A mutant (antibody, part only; not given: variable domains, not shown: another chain or arm of the molecule)
constant: B1 constant with G190K, N315A
B46: equine IgG7 N434G mutant (antibody, part only; not given: variable domains, not shown: another chain or arm of the molecule; small tags and cut ends)
constant: B1 constant with G190K, N315G
B47: equine IgG7 A426N mutant (antibody, part only; not given: Variable domains, not shown: another chain or arm of the molecule)
constant: B1 constant with G190K, A307N
B48: equine IgG7 A426Q mutant (antibody, part only; not given: variable domains, not shown: another chain or arm of the molecule)
constant: B1 constant with G190K, A307Q
B49: equine IgG7 M428E mutant (antibody, part only; not given: variable domains, not shown: another chain or arm of the molecule)
constant: B1 constant with G190K, M309E
B50: equine IgG7 A426T mutant (antibody, part only; not given: Variable domains, not shown: another chain or arm of the molecule)
constant: B1 constant with G190K, A307T
B51: equine IgG7 K311L mutant (antibody, part only; not given: variable domains, not shown: another chain or arm of the molecule)
constant: B1 constant with G190L
B52: equine IgG7 M428S mutant (antibody, part only; not given: variable domains, not shown: another chain or arm of the molecule)
constant: B1 constant with G190K, M309S
B53: equine IgG7 A426K mutant (antibody, part only; not given: variable domains, not shown: another chain or arm of the molecule)
constant: B1 constant with G190K, A307K
B54: equine IgG7 M428F mutant (antibody, part only; not given: variable domains, not shown: another chain or arm of the molecule)
constant: B1 constant with G190K, M309F
B55: equine IgG7 N434D mutant (antibody, part only; not given: variable domains, not shown: another chain or arm of the molecule)
constant: B1 constant with G190K, N315D
B56: equine IgG7 A426R mutant (antibody, part only; not given: Variable domains, not shown: another chain or arm of the molecule)
constant: B1 constant with G190K, A307R
B57: equine IgG7 M428I mutant (antibody, part only; not given: variable domains, not shown: another chain or arm of the molecule)
constant: B1 constant with G190K, M309I
B58: equine IgG7 A426Y mutant (antibody, part only; not given: variable domains, not shown: another chain or arm of the molecule)
constant: B1 constant with G190K, A307Y
B59: equine IgG7 N434E mutant (antibody, part only; not given: variable domains, not shown: another chain or arm of the molecule)
constant: B1 constant with G190K, N315E
B60: equine IgG7 N434H mutant (antibody, part only; not given: Variable domains, not shown: another chain or arm of the molecule; small tags and cut ends)
constant: B1 constant with G190K, N315H
B61: equine IgG7 A426G mutant (antibody, part only; not given: variable domains, not shown: another chain or arm of the molecule)
constant: B1 constant with G190K, A307G

target: equine FcRn (large alpha subunit p51) in complex with equine beta-2-microglobulin (equine) (UniProt F6XZ61); assay: SPR (Biacore), pH 6
Sequence of UniProt F6XZ61 (F6XZ61 entry or part of it, one chain of several): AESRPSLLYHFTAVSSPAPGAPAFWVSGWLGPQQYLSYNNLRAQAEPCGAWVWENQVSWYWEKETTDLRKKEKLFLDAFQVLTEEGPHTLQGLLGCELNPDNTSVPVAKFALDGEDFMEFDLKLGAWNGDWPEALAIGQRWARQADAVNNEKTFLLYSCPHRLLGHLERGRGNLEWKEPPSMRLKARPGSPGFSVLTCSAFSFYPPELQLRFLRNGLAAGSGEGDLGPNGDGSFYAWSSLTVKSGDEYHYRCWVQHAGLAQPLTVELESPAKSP

Row | Binder | Kd [nM]
1 | B1 | 20.9
2 | B2 | 6.6
3 | B3 | 159
4 | B4 | 24.1
5 | B5 | 96.9
6 | B6 | 114
7 | B7 | 31.7
8 | B8 | 194
9 | B9 | 27.6
10 | B10 | 19
11 | B11 | 20
12 | B12 | 22.7
13 | B13 | 14600
14 | B14 | 23.2
15 | B15 | 63.5
16 | B16 | 21.3
17 | B17 | 7.4
18 | B18 | 38
19 | B19 | 19.4
20 | B20 | 22.1
21 | B21 | 273

Row | Binder | Kd [nM]
22 | B22 | 10.4
23 | B23 | 15.6
24 | B24 | 39.5
25 | B25 | 23.3
26 | B26 | 6700
27 | B27 | 13.2
28 | B28 | 17.6
29 | B29 | 2000
30 | B30 | 18.4
31 | B31 | 2.5
32 | B32 | 1.2
33 | B33 | 1.3
34 | B34 | 18.9
35 | B35 | 165
36 | B36 | 3.7
37 | B37 | 10.5
38 | B38 | 14.4
39 | B39 | 18.9
40 | B40 | 12.6
41 | B41 | 11.8
42 | B42 | 40.4

Row | Binder | Kd [nM]
43 | B43 | 15.1
44 | B44 | 13.4
45 | B45 | 36.4
46 | B46 | 7400
47 | B47 | 15.8
48 | B48 | 18.6
49 | B49 | 39.8
50 | B50 | 26.5
51 | B51 | 17.3
52 | B52 | 5.8
53 | B53 | 17.8
54 | B54 | 23.9
55 | B55 | 1.1
56 | B56 | 35
57 | B57 | 240
58 | B58 | 21.1
59 | B59 | 6.1
60 | B60 | 25.3
61 | B61 | 13.6
